One data set concerns PAR4. In words: PAR activation by cytoplasmic calcium release, ratiometric Fura-2 imaging, PAR4 transfected HeLa cells. In kind it is cell-based, human. As to conditions: Fura-2 340:380 ratiometric imaging. On the procedure:
PAR activation observed by cytoplasmic calcium release—The four human PAR cDNAs were obtained from commercial sources and cloned into the pcDNA3.1 (−) vector (Invitrogen). HeLa cells were transfected with 10 μg of vector cDNA using Lipofectamine 2000 (Invitrogen) and cultured for two days in 96-well glass bottom plates at 30,000 cells/well. Cells were loaded with Fura-2 as follows. The medium was aspirated and replaced with 100 μl of complete DMEM containing 2 μM Fura-2 (Invitrogen) and kept at room temperature in the dark for 1 hr. The medium was again aspirated and each well received 90 μl of HEPES buffered saline (20 mM HEPES, 115 mM NaCl, 5.4 mM KCl, 2 mM CaCl2, 0.8 mM MgCl2, 13.8 mM glucose, pH 7.4). Plates were observed using a Zeiss Axiovert 200M microscope equipped with a filter wheel for monitoring excitation at 340 and 380 nm. Axiovision software, version 4.6 was used to analyze ratiometric calcium imaging of the cells. Ten μl of protease was applied approximately 20 seconds after the start of excitation. Images were taken every 5 seconds, beginning at time zero, for 3 minutes. The software was used to analyze the 37 images taken during each 3-minute period.

Another data set deals with skin of volunteers. As to the kind of experiment: Psychophysics: itch sensation after insertion of native or reconstituted cowhage spicules into skin. In kind it is in vivo. As to conditions: human volunteers; autoclaved spicules soaked in the substance and dried. On the procedure:
Reconstitution of spicules—Native spicules were inactivated by autoclaving for 1 hour and reconstituted with native and recombinant mucunains in the presence or absence of cysteine protease inhibitor, E64. Typically, 50 mg of inactivated spicules were mixed with 0.4 ml of 28 μM mucunain in a 2 ml microfuge tube, vortexed, and dried in a Speed-vac for 2 hours at room temperature. These spicules were then considered as ‘reconstituted’ with the protease alone. Spicules prepared in a similar manner but with E64 added at twice the concentration of mucunain, are considered reconstituted with the protease and the inhibitor.
Psychophysics—These protocols were approved by the Yale University Human Investigation Committee. A row of 10 cowhage spicules were lightly pasted to the flattened end of a Weck-Cel surgical strip, spaced at 1 mm, and applied parallel to the surface of the skin at the mid-volar forearm. […] Every 30 sec, subjects rated the magnitude of each of three qualities of sensation: Itch, pricking/stinging, and burning using the Generalized Labeled Magnitude Scale (Bartoshuk et al. 2004) that employs appropriately placed intensity descriptors of “none”, “barely detectable”, “weak”, “moderate”, “strong”, “very strong” and, at the top of the scale, “the strongest sensation imaginable.” Voltages derived from each subject's movements of a computer mouse that controlled a cursor on a visual representation of this scale were converted to numbers between 0 and 100 and plotted for each quality at successive intervals of 30 s up to 20 min after the insertion of cowhage. […]
The sensory effects of mucunain was further analyzed. […] 50 mg of the inactivated, dried spicules were then soaked in 0.05 ml of the filtered extract containing 0.07 mg of cysteine protease (as determined by non-interfering protein assay) with or without 3.5 micrograms of E-64. […]

The test system of a further data set is casein. As to conditions: 12.5% native casein-zymogram gel, 0.1 μg of each mucunain. On the procedure:
Zymogram—The zymogram of native and recombinant mucunain was carried out using a 12.5% native casein-zymogram gel as recommended by the supplier (Biorad). The zymogram gel was run with 0.1 μg of each of the mucunains, renatured and developed for protease activity overnight.

The conditions of data set [1]: native mucunain 0.9 μM, recombinant mucunain 2.7 μM; room temperature 1 hr; absorbance at 405 nm. On the procedure: Chromogenic substrate assay—Native and recombinant mucunain protease activity were measured in a buffer containing 50 mM sodium acetate (pH 5.5), 2.5 mM EDTA, 2.5 mM DTT, and 250 μg/ml Z-Phe-Arg-pNA as the chromogenic substrate. After adding protease, the reaction was incubated at room temperature for 1 hr. Generation of the yellow product, p-nitroaniline, was assayed by measuring the absorbance at 405 nm. Papain served as a control cysteine protease. E64, an irreversible inhibitor of cysteine proteases, was used at a concentration of 10 M. Experiments were performed in triplicate and the error bars represent standard deviation.

B1: papain: crystallized papain from Sigma, control cysteine protease (protein)
chain: IPEYVDWRQKGAVTPVKNQGSCGSCWAFSAVVTIEGIIKIRTGNLNEYSEQELLDCDRRSYGCNGGYPWSALQLVAQYGIHYRNTYPYEGVQRYCRSREKGPYAAKTDGVRQVQPYNEGALLYSIANQPVSVVLEAAGKDFQLYRGGIFVGPCGNKVDHAVAAVGYGPNYILIKNSWGTGWGENGYIRIKRGTGNSYGVCGLYTSSFYPVKN
In the case of B1, the “calcium influx in PAR4 transfected HeLa cells” value in the data set on PAR4 was “induced calcium influx”. Also, the “itch evoked by substance loaded into inactivated spicules” value (from here on “itch evoked”) in the data set with skin of volunteers is listed as “produced itch”.

B2: recombinant mucunain: M. pruriens cysteine protease expressed in E. coli, refolded and activated (protein)
chain: DNLPESVDWRNESAVLPVKDQGNCGSCWAFSTIGAVEGINKIVTGDLISLSEQELVDCDTSYNQGCNGGLMDYAYEFIINNGGIDSEEDYPYRAVDGTCDQYRKNAKVVTIDSYEDVPANDELALKKAVANQPVSVAIEGGGREFQLYVSGVFTGRCGTALDHGVVAVGYGSVKGHDYWIVRNSWGASWGEEGYVRLERNLAKSRSGKCGIAIEPSYPIKNGANPPNPGPSPPSPVKPPNVCDNSYSCSDSATCCCIFEFQKYCMVWGCCPLEAATCCDDHYSCCPHEYPICNVRAGTCLKGKNNPFGVKALRRTPAKPHWAFGGKNKVNSA
Take B2: in the data set with casein, the “protease activity in zymogram” value is on record as “Protease activity was found”. Also, in the data set with PAR4, the “calcium influx in PAR4 transfected HeLa cells” value is listed as “induced calcium influx”. Also, the “itch evoked” value in the data set on skin of volunteers is given as “did elicit itch”.

B3: mucunain: cysteine protease, itch-inducing component of spicules from M. pruriens (cowhage) (protein)
chain: DNLPESVDWRNESAVLPVKDQGNCGSCWAFSTIGAVEGINKIVTGDLISLSEQELVDCDTSYNQGCNGGLMDYAYEFIINNGGIDSEEDYPYRAVDGTCDQYRKNAKVVTIDSYEDVPANDELALKKAVANQPVSVAIEGGGREFQLYVSGVFTGRCGTALDHGVVAVGYGSVKGHDYWIVRNSWGASWGEEGYVRLERNLAKSRSGKCGIAIEPSYPIKNGANPPNPGPSPPSPVKPPNVCDNSYSCSDSATCCCIFEFQKYCMVWGCCPLEAATCCDDHYSCCPHEYPICNVRAGTCLKGKNNPFGVKALRRTPAKPHWAFGGKNKVNSA
On to B3, for which, in data set [1], the “cleavage of chromogenic substrate Z-FR-pNA” value is given as “cleaves”. Moreover, in the data set with skin of volunteers, the “itch evoked” value was “evoked itch and nociceptive sensations”.

Values taken from patent US20080213252A1, “METHODS OF TREATING ITCH” (priority 2007, published 2008).
